For this experiment, the target named is CD40 on human B cells (human) (UniProt P25942). The experiment can be described thus: cell-based or functional assay.
Sequence of UniProt P25942 (P25942 21-277): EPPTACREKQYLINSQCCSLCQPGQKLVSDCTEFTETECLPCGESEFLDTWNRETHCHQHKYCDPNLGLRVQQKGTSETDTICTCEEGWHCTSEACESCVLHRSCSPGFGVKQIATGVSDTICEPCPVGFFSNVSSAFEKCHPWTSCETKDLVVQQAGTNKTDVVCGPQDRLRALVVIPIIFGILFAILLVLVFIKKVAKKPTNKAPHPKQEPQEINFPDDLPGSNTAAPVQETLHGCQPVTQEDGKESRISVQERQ

“human CD40L isoleucine zipper (CD40L-IZ) (from UniProt P29965 113-261) (ligand)” came in with an average CD40 internalization score after 1 h stimulation (unstimulated: 0.41) of 2.09, a percent of B cells with NF-kB p50 nuclear translocation (unstimulated: 29%) of 58% and a percent of B cells with internalized CD40 (internalization score >2.5; unstimulated: 2.1%) of 42%.

For the substance “human CD40 ligand (CD40L), membrane form on cells (from UniProt P29965 1-261)”, the average CD40 internalization score after co-culture with 10% hCD40L-CHO cells came to 1.69, the average CD40 internalization score on fresh B cells co-cultured 1 h with autologous CD40L-IZ-stimulated B cells that had upregulated CD40L was found to be 1.26, the percent of B cells with CD40 downregulation after 1 h co-incubation with 1% hCD40L-CHO cells came out at 5% and the percent of B cells with CD40 internalization after co-culture with 10% hCD40L-CHO cells worked out at 33%. For the same substance, the percent of B cells with NF-kB p50 nuclear translocation after hCD40L-CHO cells (unstimulated: 29%) is 54%, the percent of fresh B cells with internalized CD40 after co-culture with autologous CD40L-IZ-stimulated B cells that had upregulated CD40L is 19.5%, the percent of fresh B cells with p50 nuclear translocation after co-culture with CD40L-IZ-stimulated B cells is 41% and the percent of total CD40lo/- B cells after 1 h co-incubation with 10% hCD40L-CHO cells is 37%.

Source of the values: patent publication US20230236188A1.
